The source of these data is US20210380653A1.

This test deals with DR5 receptor (TRAIL-R2, TNFRSF10B) (human) (UniProt O14763). In words: cell-based or functional assay.
Sequence of DR5 receptor (TRAIL-R2, TNFRSF10B) (human) (O14763 56-440): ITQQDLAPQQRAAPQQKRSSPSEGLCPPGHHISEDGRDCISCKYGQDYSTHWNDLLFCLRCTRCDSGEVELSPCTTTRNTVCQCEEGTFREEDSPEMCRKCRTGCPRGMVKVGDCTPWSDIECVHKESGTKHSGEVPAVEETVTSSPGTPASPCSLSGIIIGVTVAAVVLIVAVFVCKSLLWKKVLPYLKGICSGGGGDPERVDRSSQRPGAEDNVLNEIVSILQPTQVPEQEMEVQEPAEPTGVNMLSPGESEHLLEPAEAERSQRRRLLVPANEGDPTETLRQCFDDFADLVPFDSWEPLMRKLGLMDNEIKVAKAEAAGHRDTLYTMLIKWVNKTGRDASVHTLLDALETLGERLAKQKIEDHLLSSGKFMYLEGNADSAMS

With “TLY012 (PEGylated miLZ-TRAIL; PEGylated form of recombinant human TRAIL fused to a modified isoleucine zipper at the N-terminus) (ligand)”, the IC50, nM (cell viability / cytotoxicity, COLO-205 cells, CellTiter-Glo) was 0.0155 nM.
